# Values of other authors in PMC5010500 (Journal of molecular biology, 2016).
# Target: Keap1 Kelch domain (Homo sapiens) (UniProt Q14145)
# Assay: ITC
# Details: cited from earlier work
# Chain of Keap1 Kelch domain (Homo sapiens) (Q14145 321-609): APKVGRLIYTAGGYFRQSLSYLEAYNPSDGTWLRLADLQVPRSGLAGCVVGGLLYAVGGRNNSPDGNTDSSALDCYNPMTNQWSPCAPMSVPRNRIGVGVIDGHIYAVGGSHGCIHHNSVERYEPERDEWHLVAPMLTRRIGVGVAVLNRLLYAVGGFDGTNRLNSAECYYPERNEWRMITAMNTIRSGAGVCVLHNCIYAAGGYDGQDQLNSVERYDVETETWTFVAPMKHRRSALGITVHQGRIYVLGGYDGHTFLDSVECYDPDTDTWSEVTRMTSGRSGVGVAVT
# Chain of mVP24 (P35256 whole entry): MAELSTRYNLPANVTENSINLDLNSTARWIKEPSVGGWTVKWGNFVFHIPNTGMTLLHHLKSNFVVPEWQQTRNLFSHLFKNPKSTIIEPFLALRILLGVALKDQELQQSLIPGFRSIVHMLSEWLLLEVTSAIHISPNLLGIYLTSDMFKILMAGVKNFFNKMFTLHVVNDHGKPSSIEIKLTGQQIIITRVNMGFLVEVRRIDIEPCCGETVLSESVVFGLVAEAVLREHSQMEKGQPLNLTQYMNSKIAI
substance,measurement,value
mVP24 (from UniProt P35256),Kd,160 nM
